Results: the supplement of paper PMC9732359
± gives the uncertainty stated by the source.

Assay: protein stability index of a GFP-peptide fusion (yeast GPS) (PSI 1-4); higher = more stable; sorted into four equal gates, so the index is relative within each strain
Summary of the method: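 Tiled 17-residue yeast protein peptides were fused downstream of GFP in a plasmid that also expresses Cherry, and the pooled library was carried in yeast. Mid-log cultures in leucine-free medium were sorted into four equal gates by GFP/Cherry fluorescence ratio, and plasmids from each gate were PCR-amplified and Illumina-sequenced, with reads assigned to strains by barcodes. The protein stability index for each peptide was each gate's read frequency times its gate number, summed.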

Sequence	protein stability index (doa10∆)	protein stability index (pdr5∆)	protein stability index (san1∆)	protein stability index (ubr1∆)
GWFHSHPGYDCWLSNID [RRI1]	2.85 ± 0.075	3.05 ± 0.054	2.77 ± 0.074	2.81 ± 0.071
GLNAKQLYKARMSIKLL [POP1]	2.13 ± 0.082	1.73 ± 0.08	2.41 ± 0.06	2.37 ± 0.029
LWRNFCRKLSFSDKVNA [ITC1]	2.09 ± 0.19	1.76 ± 0.2	1.14 ± 0.23	1.37 ± 0.094
VDENGDPIWQHQSLGPD [RET1]	3.25 ± 0.056	3.21 ± 0.081	3.33 ± 0.042	3.27 ± 0.084
WQYYYYTLTEEGVEYLR [RPS10A]	2.58 ± 0.084	2.66 ± 0.072	2.74 ± 0.098	3.21 ± 0.1
ESISQTPISNEQTEGEP [SRP68]	3.21 ± 0.1	3.29 ± 0.16	3.16 ± 0.071	3.19 ± 0.065
ISFRSNLLKNFISSNDA [SNF6]	2.77 ± 0.12	1.75 ± 0.086	2.35 ± 0.21	2.27 ± 0.074
NDSSATRSWRPPQAGDR [RPB8]	3.06 ± 0.26	–	–	2.76 ± 0.26
QIISNAHNKPSLFSKIK [YAR002W/NUP60]	2.94 ± 0.088	2.98 ± 0.093	2.77 ± 0.071	2.94 ± 0.058
LIENGASVRIKDKFNQI [NAS6]	–	3.12 ± 0.18	–	3.27 ± 0.065
NEPSQSLISTRNDSTVN [BRN1]	3.16 ± 0.07	3.17 ± 0.086	3.08 ± 0.071	2.82 ± 0.045
LPELWALLNFVLPKIFN [SNF2]	2.38 ± 0.074	1.89 ± 0.062	2.07 ± 0.098	1.51 ± 0.038
LPPPPPPPGLDELETKA [PRP8]	3.13 ± 0.056	3.15 ± 0.057	3.25 ± 0.05	3.17 ± 0.05
ASFFFMVMFMHMAKGLY [COB]	1.86 ± 0.046	1.58 ± 0.038	1.67 ± 0.08	1.4 ± 0.037
RLAEFKRRKLDLNNAVQ [SMC4]	3.28 ± 0.27	2.87 ± 0.12	2.98 ± 0.067	2.96 ± 0.078
VNADTVGKTVKQLIMES [NSL1]	3.22 ± 0.077	3.13 ± 0.055	2.94 ± 0.058	3.33 ± 0.05
VIGGNSLFHIVVDTEET [SMC3]	2.73 ± 0.099	2.78 ± 0.091	2.54 ± 0.076	2.53 ± 0.06
LNELSAKDKEIYNKMIG [RPN13]	2.8 ± 0.092	2.65 ± 0.11	2.2 ± 0.11	2.83 ± 0.082
FKSSVEMGKTDKSTKTA [YOR098C/NUP1]	3.45 ± 0.095	3.24 ± 0.099	3.24 ± 0.05	3.43 ± 0.063
KKIIKCDEHMGLSLAGL [PRE5]	2.94 ± 0.079	3.2 ± 0.076	3.15 ± 0.075	2.94 ± 0.076

Sequence	protein stability index (doa10∆)	protein stability index (pdr5∆)	protein stability index (san1∆)	protein stability index (ubr1∆)
PNRLVKELQYDNEQNLE [PRE2]	–	2.97 ± 0.099	2.8 ± 0.094	3.08 ± 0.073
SSTITGDVVLAAAYSHE [RPL5]	2.32 ± 0.056	2.56 ± 0.06	2.61 ± 0.057	2.31 ± 0.058
EEELWNSPSKGNSERPS [YIL149C/MLP2]	3.11 ± 0.1	3.38 ± 0.083	3.24 ± 0.061	3.27 ± 0.095
SKTGIIAYSDSQSSNAN [SIN4]	2.63 ± 0.043	2.6 ± 0.043	2.68 ± 0.044	2.53 ± 0.058
SLSRDFVMKTRRRKGIS [SNU114]	3.25 ± 0.2	3.31 ± 0.11	3.02 ± 0.074	2.77 ± 0.22
LIGSIRFPTKFVTQFRH [RET1]	1.57 ± 0.056	1.41 ± 0.057	1.29 ± 0.16	1.31 ± 0.048
PLKYTKLIAAAEDGSRS [SNF6]	1.3 ± 0.23	1.49 ± 0.11	1.19 ± 0.21	1.57 ± 0.18
KMIILDKLLKRLKEKGS [ISW2]	1.58 ± 0.049	1.32 ± 0.061	1.35 ± 0.12	1.44 ± 0.055
SKIQEIESIRSCKDSQL [YIL149C/MLP2]	2.29 ± 0.044	2.92 ± 0.054	2.77 ± 0.041	2.79 ± 0.047
KEVLPDLQNLNLNTDKL [YJL039C/NUP192]	3.38 ± 0.1	2.94 ± 0.098	3.25 ± 0.097	2.64 ± 0.085
IKDEIDDPFTKINTRGA [SWI1]	1.96 ± 0.22	1.58 ± 0.1	1.53 ± 0.13	2.12 ± 0.16
EVSQFLIENGASVRIKD [NAS6]	3.08 ± 0.21	2.39 ± 0.2	–	2.71 ± 0.12
HEKIEDEDEDNDLDEDD [RPN4]	3.56 ± 0.2	3.44 ± 0.09	3.55 ± 0.086	3.45 ± 0.11
VHPDYLYGAITEDRYNE [FAS2]	1.08 ± 0.092	1.34 ± 0.097	1.14 ± 0.15	1.27 ± 0.086
SVVSQIEKGSTFGINLI [FAS1]	3.09 ± 0.2	3.06 ± 0.11	3 ± 0.08	3.26 ± 0.076
WYEASTWIQQFKSTMLQ [ARP7]	2.54 ± 0.078	2.68 ± 0.069	2.6 ± 0.093	2.14 ± 0.056
GAKPAGSTGGLGASFGQ [YGL172W/NUP49]	3.38 ± 0.14	3.41 ± 0.24	3.22 ± 0.11	3.54 ± 0.071
NGKTRTLENTLKAAFVA [RPS2]	2.85 ± 0.11	2.8 ± 0.14	3 ± 0.089	2.67 ± 0.085
DIKDFADKVYTKENLEV [QCR2]	3.34 ± 0.092	3.42 ± 0.11	2.69 ± 0.12	3.33 ± 0.053
NKIMTNQINSFWSLHSS [NUT1]	1.91 ± 0.2	2.23 ± 0.15	2.06 ± 0.11	3.31 ± 0.1

Sequence	protein stability index (doa10∆)	protein stability index (pdr5∆)	protein stability index (san1∆)	protein stability index (ubr1∆)
NSSEKNNNNNNNNNNNN [MED2]	3.09 ± 0.058	3.03 ± 0.058	2.95 ± 0.059	3.12 ± 0.053
FVIRREVTKGEKTYTKA [RPS6A]	3.24 ± 0.17	3.13 ± 0.14	–	3.53 ± 0.13
QVGLNFELSFTGAPPYY [YMR129W/POM152]	2.35 ± 0.053	2.08 ± 0.061	1.58 ± 0.061	1.93 ± 0.031
GNNNNNNSGNDNNNTTN [MED2]	3.06 ± 0.056	3.05 ± 0.058	3.08 ± 0.045	2.93 ± 0.078
ETTTQFKATHILDFGPG [FAS1]	2.44 ± 0.081	2 ± 0.094	2.16 ± 0.084	2.25 ± 0.054
SNADTNQNSDMKKKLEL [SRB8]	3.14 ± 0.13	3.21 ± 0.15	2.75 ± 0.11	3.31 ± 0.17
DHKYVCTFSMEPYHFIS [SRB8]	2.37 ± 0.061	2.03 ± 0.047	1.83 ± 0.059	2.09 ± 0.043
DIDVTIVSKEYEKNFEA [ESC2]	3.27 ± 0.15	3.06 ± 0.14	3.24 ± 0.088	3.42 ± 0.16
SYPILNESSTFLKLVLS [SIN4]	1.97 ± 0.035	2.27 ± 0.034	2.11 ± 0.05	2.22 ± 0.031
MSNDPGNEVSSLYPPPP [MED7]	3.21 ± 0.1	2.92 ± 0.071	2.69 ± 0.082	3.08 ± 0.062
SDKIPYVAPTKKEYIEL [SRB4]	2.77 ± 0.1	2.7 ± 0.1	2.32 ± 0.11	2.8 ± 0.12
LSTSVGWKYEDVVAKLE [RPL16A]	3.44 ± 0.11	3.29 ± 0.21	3.5 ± 0.14	3.53 ± 0.19
RAVLTPLITRHCYPRQL [RRP46]	2.4 ± 0.048	2.18 ± 0.037	2.36 ± 0.052	2.39 ± 0.033
NESKIKELNEKIQKLEE [RPN7]	2.95 ± 0.16	2.48 ± 0.11	2.26 ± 0.14	2.09 ± 0.14
SVMDPITSKRKAELLLK [DIS3]	2.83 ± 0.088	2.76 ± 0.12	2.55 ± 0.12	2.85 ± 0.085
QILIFAADTSIVEQDKS [YJL039C/NUP192]	2.04 ± 0.13	2.44 ± 0.21	2.45 ± 0.18	2.54 ± 0.25
NGVPGQALDAVRMRLAQ [MED8]	1.38 ± 0.067	1.39 ± 0.063	1.25 ± 0.1	1.26 ± 0.047
ETLNDTIERSLIEEEVE [YCS4]	3.42 ± 0.14	3.43 ± 0.082	3.31 ± 0.056	3.33 ± 0.097
DDTKNQDSMSKGTGEES [YGR119C/NUP57]	3.16 ± 0.077	3.14 ± 0.16	3.21 ± 0.082	3.42 ± 0.057
